This passage reports stoichiometry N and ktet (kinetics of tetramerisation with half-stoichiometric FBP and Phe) results from article PMC6636998.

Assay [1] deals with pyruvate kinase M2 (PKM2), wild type, purified recombinant human (human) (UniProt P14618). Briefly: native MS; nano-ESI, 10 µM PKM2 in 200 mM ammonium acetate pH 6.8, no FBP added (PKM2^apo*, <25% co-purified FBP); also with 300 µM Phe alone (fewer tetramers, more dimers).
Assay [2] shares this target. The assay is described as follows: native MS; time course over 20 min, 10 µM PKM2 with 5 µM FBP and 400 µM Phe; ratio of the tetramer 32+ peak to the dimer 22+ peak, two-state sigmoidal model; dimers and monomers to tetramer.

Chain of pyruvate kinase M2 (PKM2), wild type, purified recombinant human, P14618-1 1-531 (enzyme; other documents disagree on this pair) (P14618 whole entry): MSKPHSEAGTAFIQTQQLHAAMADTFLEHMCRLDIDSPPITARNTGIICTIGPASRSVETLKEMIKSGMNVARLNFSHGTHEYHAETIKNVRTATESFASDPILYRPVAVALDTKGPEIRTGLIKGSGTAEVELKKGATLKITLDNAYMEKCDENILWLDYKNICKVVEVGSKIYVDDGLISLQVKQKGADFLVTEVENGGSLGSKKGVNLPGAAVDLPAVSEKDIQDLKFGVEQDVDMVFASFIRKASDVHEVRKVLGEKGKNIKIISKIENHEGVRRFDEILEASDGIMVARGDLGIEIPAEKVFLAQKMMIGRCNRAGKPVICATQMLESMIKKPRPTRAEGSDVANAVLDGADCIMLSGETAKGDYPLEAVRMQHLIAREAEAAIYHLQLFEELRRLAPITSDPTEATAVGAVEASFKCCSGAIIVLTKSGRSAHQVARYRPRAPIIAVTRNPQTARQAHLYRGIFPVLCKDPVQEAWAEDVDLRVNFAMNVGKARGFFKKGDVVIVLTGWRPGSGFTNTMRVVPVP

As for “pyruvate kinase M2 (PKM2), wild type, purified recombinant human, P14618-1 1-531 (enzyme; other documents disagree on this pair)”, the stoichiometry N (as a rule, the number of molecules, sites or subunits per partner or assembly) in assay [1] is 2. The ktet (kinetics of tetramerisation with half-stoichiometric FBP and Phe) in assay [2] stood at 812 s.
